# Laboratory results reported in patent US20240360176A1 (MARSHALL UNIVERSITY RESEARCH, published 2024).
# B1: pNaKtide (peptide)
# peptide: not shown
# Biological target: Src kinase (human, endogenous in the HCC cell lines HEP3B and SNU475) (human, UniProt P12931 2-536, phosphorylation read out with a polyclonal antibody to Tyr419 of Src kinase)
# Experiment: cell-based or functional assay
binder,measurement,value
B1,"cell proliferation (MTT assay), IC50, Hep3 cells",62.5 µM
same,"cell proliferation (MTT assay), IC50, SNU475 cells",6 µM
